Laboratory results as given in article PMC5358725 (Genes & Development, 2017).

T1: Flag-3C-Mcm10-V5 (S. cerevisiae, UniProt P32354 1-571)
T1 sequence: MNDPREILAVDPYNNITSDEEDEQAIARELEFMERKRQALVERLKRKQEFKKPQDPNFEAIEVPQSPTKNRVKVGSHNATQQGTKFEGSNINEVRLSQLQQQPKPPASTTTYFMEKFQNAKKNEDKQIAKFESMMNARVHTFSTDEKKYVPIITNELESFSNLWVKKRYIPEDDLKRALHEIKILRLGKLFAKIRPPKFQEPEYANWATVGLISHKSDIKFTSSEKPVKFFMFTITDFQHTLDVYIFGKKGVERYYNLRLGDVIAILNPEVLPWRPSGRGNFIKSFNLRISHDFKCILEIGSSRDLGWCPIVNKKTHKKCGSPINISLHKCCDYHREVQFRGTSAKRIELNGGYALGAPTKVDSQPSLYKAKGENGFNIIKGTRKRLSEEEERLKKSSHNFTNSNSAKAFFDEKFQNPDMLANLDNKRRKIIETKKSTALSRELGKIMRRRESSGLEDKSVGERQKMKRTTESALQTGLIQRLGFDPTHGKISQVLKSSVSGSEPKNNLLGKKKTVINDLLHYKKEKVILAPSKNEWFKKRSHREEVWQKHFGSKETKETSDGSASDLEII


Target: T1, Flag-3C-Mcm10-V5
Experiment: co-IP

Row | binding result | Binder
1 | binds | MBP-Mcm2 196–299 (domain or fragment) EWITQPNVSRTIARELKSFLLEYTDETGRSVYGARIRTLGEMNSESLEVNYRHLAESKAILALFLAKCPEEMLKIFDLVAMEATELHYPDYARIHSEIHVRISD
2 | binds | Mcm2 1–483 (C-terminally 6xHis-tagged) (domain or fragment) MSDNRRRRREEDDSDSENELPPSSPQQHFRGGMNPVSSPIGSPDMINPEGDDNEVDDVPDIDEVEEQMNEVDLMDDNMYEDYAADHNRDRYDPDQVDDREQQELSLSERRRIDAQLNERDRLLRNVAYIDDEDEEQEGAAQLDEMGLPVQRRRRRRQYEDLENSDDDLLSDMDIDPLREELTLESLSNVKANSYSEWITQPNVSRTIARELKSFLLEYTDETGRSVYGARIRTLGEMNSESLEVNYRHLAESKAILALFLAKCPEEMLKIFDLVAMEATELHYPDYARIHSEIHVRISDFPTIYSLRELRESNLSSLVRVTGVVTRRTGVFPQLKYVKFNCLKCGSILGPFFQDSNEEIRISFCTNCKSKGPFRVNGEKTVYRNYQRVTLQEAPGTVPPGRLPRHREVILLADLVDVSKPGEEVEVTGIYKNNYDGNLNAKNGFPVFATIIEANSIKRREGNTANEGEEGLDVFSWTEEEERE
